Data from the DeepSol protein solubility set.

assay: soluble on expression in E. coli; label from the status in PepcDB or PDB records

Row | Sequence | soluble on expression in E. coli
1 | MRTVAALLFLFTCLESFESSSATPVCTNGFTLINNKCLKLLNTPVNHKAAEISCSSFGATLVTVKNDHDNQAIATIVGSSTPLVWLGLYCFSSNSSQCLWDDESGSARSYNNFSSGFPLVALGQCVYYSTQGALTGKWLSAECESQRMAFVCELPTTFADNCLHNYNGYCYTFSSSPQTFIGAQSTCAQTCGNLASVHSPNENRYITTFAPQDYYYIGAIWKTDYSLRWMDGSAWDYNNIDPIYPNRYNYCLHMSTITTSGSGFWYGDDCSLSRKYVCKREAGVPCTTVPPPVTVRPSSTNPSNCNAGLLMSPGVFTSPNYPQNYFNNENCTYQLSTLGSYRITLKFSNFRTESNYDFVSVYDGPTTSSPSLGRYSGNIGSFYVSSSENNMLVTFTSDAGVVFQGFTARFYSVVHRS | not soluble
2 | MSLTDLNRTDLNRTDLNRTDLNRTDLNRTALPSRTDGTVEKTDTLVVGAGQAGVAMSEHLSRLGVPHLVLERNRIAEAWRSGRWDSLVANGPAWHDRFPGMEFDIDPDGFPGKDQVAAYFEAYAKKFDAPIRTGVEVRKVVRNVGRPGFTVETSAGTIEANRVVAATGPFQRPVIPPIAPRDERIRQIHSAHYYNPQQLPEGAVLVVGAGSSGVQIADELQRAGRQVYLSVGAHDRPPRSYRNRDFCWWLGVLGEWDAEVAKPGREHVTIAVSGARGGHTVDFRALAHQGVTLVGLTESFVDGVATFRPDLAENLARGDENYLALLDAADAYIARNGLDLPEEPEARRRLPDPQCVTDPILELDLAEAGVGSIIWATGYAVDFGWLQVDAFDRDGKPRHQRGVSSEPGVYFIGLPWLSRRGSSFIWGVWHDARHVADHIAIQRKYLAYRDAAQRQEQDRASQAPQTSLQEVSEGHHHHHH | soluble
3 | MFPSPTPPLVSPTAVIEEENDDSVREFSRTLKSRLNCAMVKLSKEHEQVALIPPPPTEKIRKGSYSNKFAAKHRRCHSLDESKKFLSSLEDSSAHAAFLKAISSKHAKSNRVDNVNVSPLRWSSHRRTQSTQENSLQEVVAIDTLLKMSSSD | not soluble
4 | MANKKIDHREEAIELLKQDAKRILQLIKVQMDNLTLPQCPAYEEVLDTQMYGLSREINFATRLGLIEPEEGKKLISTLEKELSALHELSMSKK | not soluble
5 | MMLAGCGPIEPDYPNNKYTLTWYCTSDDGTCERVVELRRYDRASIQNNDLTIWDSQDPGGAIEALIVYSDSLPQHCDRIFYLVFFGHEIEEPRYCGNHYAFEIELSIPDEDPATSSRWVISAAPLD | not soluble
6 | MTDVEIKAENGSGDASLEPENLRKIFVGGLTSNTTDDLMREFYSQFGEITDIIVMRDPTTKRSRGFGFVTFSGKTEVDAAMKQRPHIIDGKTVDPKRAVPRDDKNRSESNVSTKRLYVSGVREDHTEDMLTEYFTKYGTVTKSEIILDKATQKPRGFGFVTFDDHDSVDQCVLQKSHMVNGHRCDVRKGLSKDEMSKAQMNRDRETRGGRSRDGQRGGYNGGGGGGGGWGGPAQRGGPGAYGGPGGGGQGGYGGDYGGGWGQQGGGGQGGWGGPQQQQGGGGWGQQGGGGQGGWGGPQQQQQGGWGGPQQGGGGGGWGGQGQQQGGWGGQSGAQQWAHAQGGNRNY | not soluble
7 | MFEIATAKVDNMRVSIVGGGFAGLAAAQLAEEVTSDVHLYDKGTYSGDRRGAWGEMVWDYSQLPLDRHVPGYVREATTGIFIGSDGKTAINVPDGVILNRGELEKHWASTLEETEIIADAEVDEAEFRKLSAESDLLIDATGQFPISRRFTSLSYDVACPTLSGRIEADFSHLYPEPRALAYENYFLWIVPQSPDEATIGLGCQEDKSPAELYEDMRQLLAEVDIEPPERETLYSGTDVSNGLRSLSDCSYELNDCTVHIAGDAIGLANRLTGFGMVHAAQSGQAAVRSFVQGESYTRRLLCQNFWTKAVTGVVSPVHHTIGLDGIARLAKSDIEYQESFEPQQPTDILSAVRIFILEHHHHHH | not soluble
8 | MGSDKIHHHHHHMHKVMISRIKGTQDIAFEDIDYWHFAEEIIRNISHKYAFTEIRTPIFEATELFKRSVGESTDVVQKEMYTFEDKGGRSITLRPEGTASVARAFIENSFINLGSPVKLFYSGPMFRYEKPQAGRLRQFHQFGAEILGSESPLADFEIIEMAYSFLKELKINNAKLFINSIGCPACREDYKTALKEYYSDKLAGMCPDCQRRYETNVLRLLDCKIDKGLVQGAPGILDYLDSDCRSHFEELQWYLERAGIDYEVDQFLVRGLDYYTRTAFEIRSSSLGSQDQLVGGGRYDGLVEYIGGKSCPAVGFAIGLERIVMLLKSENVRINGPETSEVAILTFGREESVRGFDYAKRLRKMGVSTFVDVMERNMRNKMKHASRIGAKISLLIGKEEIERDIVTIKVMNDGSQFQVDSDYMADYVVDKLRDIS | not soluble
9 | MRYQKLEIQEANWQWKYLLKKHREGENITKHTEQSLIELKVQFLTTLQHSPAEIEQWIKAEMTAEQRKRMRQSIRAKRKRFFNAEKLTTKKKSIDLDYASWLRLSKYSKTHAMTLSETINHLIDERENQHLYSEQMAKMKASLKDLLK | not soluble
10 | SDSTAGTDAVAVGGTFQFHSPDGKMEIFYDEADRQQLPDIGGDSLMEEGTQINLSDFENQVVILNAWGQWCAPCRSESDDLQIIHEELQAAGNGDTPGGTVLGINVRDYSRDIAQDFVTDNGLDYPSIYDPPFMTAASLGGVPASVIPTTIVLDKQHRPAAVFLREVTSKDVLDVALPLVDEA | soluble
11 | GSHMKEDQVVAEEPGFQDEEESLFQDIDLLQKHGINVADIKKLKSVGICTIKGIQMTTRRALCNVKGLSEAKVDKIKEAANKLIEPGFLTAFEYSEKRKMVFHITTGSQEFDKLLGGGIESMAITEAFGEFRTGKTQLSHTLCVTAQLPGAGGYPGGKIIFIDTENTFRPDRLRDIADRFNVDHDAVLDNVLYARAYTSEHQMELLDYVAAKFHEEAGIFKLLIIDSIMALFRVDFSGRGELAERQQKLAQMLSRLQKISEEYNVAVFVTNQMTADPGATMTFQADPKKPIGGHILAHASTTRISLRKGRGELRIAKIYDSPEMPENEATFAITAGGIGDAKE | soluble
12 | GSMTGKSVKDVDRYQAVLANLLLEEDNKFCADCQSKGPRWASWNIGVFICIRCAGIHRNLGVHISRVKSVNLDQWTQEQIQCMQEMGNGKANRLYEAYLPETFRRPQIDPAVEGFIRDKYEKKKYMDRSLDINA | soluble
13 | MTGYGSLFERLNGDADKRVGWSREVSAMASVAAHLGKMLSTRAGSVQTLSDYGLPDLNDMRLSLHDSLSQARSAIEGFIEAYEPRLSDVRVVSLPRDNDQLRLAFSIEGLLEVEGFKRQVSFSACLDGSGQVKVS | not soluble
14 | MLADKESLIEALKLALSTEYNVKRNFTQSVEIILTFKGIDMKKGDLKLREIVPLPKQPSKAKRVLVVPSSEQLEYAKKASPKVVITREELQKLQGQKRPVKKLARQNEWFLINQESMALAGRILGPALGPRGKFPTPLPNTADISEYINRFKRSVLVKTKDQPQVQVFIGTEDMKPEDLAENAIAVLNAIENKAKVETNLRNIYVKTTMGKAVKVKR | soluble
15 | MASEQEKTADFGFRTVAKDEKEVMVAEVFHSVAAKYDLMNDLMSFGIHRIWKRFTIECSGVRRNQRVLDLAGGTGDLTAKFSRMVGEGGEVILADINASMLKVGREKLRNKGIIDNINYVQANAEALPFPDDFFDCITISFGLRNVTDKNKALRSMYRVLKPGGRLLVLEFSKPVIKQLSTIYDAYSFHILPRIGEAVASDAGSYRYLAESIRMHPDQETLKGMMSDAGFDSVNYFNLTGGIVALHRGFKFLEHHHHHH | not soluble
16 | MPNHQPVKKFKIIGGACKGLGLNLPNISSTRPTKAIVRESFFNTLQAEINGAHFIEVFSGSASMGLEALSRGAKSAVFFEQNKSAYKTLLENISLFKNRLKKEMEIQTFLDDAFKLLPTLCLKNGVLNIIYLDPPFETSGFLGIYEKCFQALERLLKRFNPKNLLVVFEHESMHEMPKSLVTLAIIKQKKFGKTTLTYFQLEHHHHHH | soluble
17 | SLIKNEHVKKCDTWPSGGEMVVKDLTVKYVDDGNAILENICFSISPGQRVGLLGRTGSGKSTLLSAFLRMLNIKGEIQIDGVSWNSMTLEEWRKAFGVITQKVFIFSGTFRQNLDPNGKWRDEEIWKVADQVGLKSVIEQFPGQLNFTLVDGGYVLSHGHKQLMCLARSVLSKAKIILLDEPSANLDPITYQVIRRVLRQAFAGCTVVLCEARIEAMLDCDRFLVIEQGNVWQYESLQALLSEKSDFQRALSSSE | soluble
18 | MKKSNIYIGEVIKQVIAEKQVTKAELARRLGVKPQSVDYLLTRKSIDTDTLYSLSLALDYDFAVLYSIKKEHALATDEESPFKVGNAKISLEIELRPDEMLKLNLKQKIADLLEGKGK | not soluble
19 | MPGGRGRIGVILPANNAGMEYDLWKMAPEGVSIHSTRMKPTKGCEPENVEEFEKELKYSYSLLAEVSDIIIYGRTYGTHKHAHVIKRVIKDVVIPEESVYELLKKLNVRKLWIGTPYIKERTLEEVEWWRNKGFEIVGYDGLGKIRGIDISNTPIFTIYRLVKRHLNEVLKADAVYIACTALSTYEAVQYLHEDLDMPVVSENAAAMWEALNKLKIKAKLPGF | soluble
20 | MAHHHHHHMTGSDEEFEIGDILDIKKKKNGFIYLVNWKGYSDDENTWEPESNLLHLTTFKKKMELLKSAYLNKVDTTQNDGNLLKNHLTSPSSLQEETGTTNITKTKGRNPLISKKKGNKKGVTNKLEAKKLLSTNSDNSQKMSDDEYNESIKQETIENPHDSSLLNVEDVYSVRIKNRKMEFLASLKNASPQWVEESNIRRTGHLNIKVNDFKKYIRRKKTSKGNRIVIKNLHNVGDELYISVIHNINNKEIHSLYPSKVIEYIYPQELLNFLLSRLRYRTA | soluble
21 | MALRDLSSSLSSSSSPELHVLAVDDSFVDRKVIERLLKISACKVTTVESGTRALQYLGLDGDNGSSGLKDLKVNLIVTDYSMPGLTGYELLKKIKESSALREIPVVIMSSENIQPRIEQCMIEGAEEFLLKPVKLADVKRLKELIMRGGEAEEGKTKKLSPKRILQNDIDSSPSSSSTSSSSSSHDVSSLDDDTPSSKRIKLESRG | not soluble
22 | MSLRGQVHSVFVVVPRFNLTTLITMIETMRIGNYLSSERLFSWEVTSFDGLNLGASNGVRVHLDVEPDQTAPADQVFVLASWGGEHYQNKALASWLRKRARQGERICAVELGCYLVARAGLMDGKEATTHWSWINGFQEKFDQISVVEQLFTIDGRILTCAGGMAGVDLMLRLIEQSHGAGFSGEIADQMLHNPIRKGSSSQRRTMGRGTESILPLVRQAMTLIERNIEEPLTVPQIAAALDVSQRQLERQFKKHVGCTVVQFGLLRRLQNARVLLIATELSVREIATASGFNTLSHFSYSFSKFFGRRPSDYREAWPSNEAAPTWPGTLSDFLHAINSGDKREGHHHHHH | not soluble
23 | MLETETGRYSDTLRSALVSLDGDNAWALSESWCGTIQWICPSPYRPHHGRKNWFLGIGRFTADEQEQSDAIRYETLRSSGPGGQHVNKTDSAVRATHLASGISVKVQSERSQHANKRLARLLIAWKLEQQQQENSAALKSQRRMFHHQIERGNPRRTFTGMAFIEGLEHHHHHH | not soluble
